{"source": "patent US12653792B2", "about": "“Synthetic lipids for mRNA delivery” (Trustees of Tufts College, priority 2019, dated 2026)", "origin": "cited, not measured here", "molecular_target": "T1, ANGPTL3 (Homo sapiens, UniProt Q9Y5C1)", "T1 sequence (Q9Y5C1 17-460)": "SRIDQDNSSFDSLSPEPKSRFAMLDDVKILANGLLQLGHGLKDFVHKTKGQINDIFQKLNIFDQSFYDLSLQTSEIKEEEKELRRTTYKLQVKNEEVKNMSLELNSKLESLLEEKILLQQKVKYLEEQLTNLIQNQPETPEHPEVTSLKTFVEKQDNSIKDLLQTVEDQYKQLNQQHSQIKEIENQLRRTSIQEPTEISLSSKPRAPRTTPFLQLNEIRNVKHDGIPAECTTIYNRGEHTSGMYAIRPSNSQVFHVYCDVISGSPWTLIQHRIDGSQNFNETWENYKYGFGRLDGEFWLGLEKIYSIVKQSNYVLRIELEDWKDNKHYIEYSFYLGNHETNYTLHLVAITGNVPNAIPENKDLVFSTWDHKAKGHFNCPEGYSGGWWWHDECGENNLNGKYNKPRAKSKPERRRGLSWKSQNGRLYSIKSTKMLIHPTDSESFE", "conditions": "healthy human volunteers, clinical trial", "data": [{"substance": "evinacumab: ANGPTL3 targeting monoclonal antibody", "values": [{"measurement": "LDL-C and TG levels", "result": "effective reduction in LDL-C and TG levels"}]}]}
